The values below come from US20080219985A1 (published 2008).

“And” between values parts separate entries of the source, which are not always exact repeats. Equal values may be shown once. Read-outs that look alike come from different tables or passages of the source.

The target of test [1] is T1, PROK2 receptor on Wky12-22 cells (rat aortic smooth muscle cells) (rat). The experiment in a line: cell-based or functional assay.
Test [2] deals with T1, PROK2 receptor on Wky12-22 cells (rat …). The experiment in a line: saturation binding of I-125 PROK2 to Wky12-22 cell monolayers at 4 C, two-site nonlinear regression, low affinity site. The procedure:
(§1) The binding of PROK2 to Wky12-22 cells was assessed using I¹²⁵-radiolabeled PROK2. Wky12-22 cells were seeded at low cell density and cultured for three to four days until they reached about 70% confluency. The cells were placed on ice, the medium was removed, and the monolayers were washed. The cells were incubated with increasing amounts of I¹²⁵-PROK2 in the absence (total binding) and presence (nonspecific binding) of a large excess of unlabeled PROK2. After various times at 4° C., the binding media were removed, the monolayers were washed, and the cells were solubilized with a small volume of 1.0 N NaOH. Cell associated radioactivity was determined in a gamma counter. The specific binding of I¹²⁵-PROK2 was calculated as the difference between the total and nonspecific values. The measured radioacitivity was normalized to cell number that was determined on a set of parallel cultures. Nonlinear regression using a two-site model was used to fit the binding data for determination of Kd and Bmax.

For test [3] the target is unchanged. The experiment in a line: saturation binding of I-125 PROK2 to Wky12-22 cell monolayers at 4 C, two-site nonlinear regression, high affinity site. As to the method:
as §1

The target in test [4] is T2, GPCR73a receptor (human, UniProt Q8TCW9 1-393). The experiment in a line: cell-based or functional assay.
For test [5], the target named is T2, GPCR73a receptor. As to the kind of experiment: cell-based or functional assay. This is another data set of the same source.
In test [6] the target is T3, GPCR73b receptor (Homo sapiens (Human), UniProt Q8NFJ6 1-384). The experiment in a line: cell-based or functional assay.
The target of test [7] is T2, GPCR73a receptor. The experiment in a line: cell-based or functional assay. This is another data set of the same source.
Test [8] has as its target T3, GPCR73b receptor. The experiment in a line: cell-based or functional assay. The source holds these as a separate data set.
Test [9] has as its target PROK2 receptor on 4T1.2 murine breast cancer cells (mouse). The experiment in a line: cell-based or functional assay.

T3 sequence (Q8NFJ6 whole entry): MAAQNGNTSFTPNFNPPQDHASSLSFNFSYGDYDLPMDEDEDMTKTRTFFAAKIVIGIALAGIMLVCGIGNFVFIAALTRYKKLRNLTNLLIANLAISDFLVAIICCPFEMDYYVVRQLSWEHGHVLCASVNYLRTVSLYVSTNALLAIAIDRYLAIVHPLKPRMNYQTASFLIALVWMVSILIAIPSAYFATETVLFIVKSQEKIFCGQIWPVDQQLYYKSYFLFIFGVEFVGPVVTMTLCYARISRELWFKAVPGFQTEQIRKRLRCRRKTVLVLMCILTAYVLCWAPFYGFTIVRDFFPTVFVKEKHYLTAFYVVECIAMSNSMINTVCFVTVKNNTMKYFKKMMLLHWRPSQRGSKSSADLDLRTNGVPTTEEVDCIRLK
T2 sequence (Q8TCW9 whole entry): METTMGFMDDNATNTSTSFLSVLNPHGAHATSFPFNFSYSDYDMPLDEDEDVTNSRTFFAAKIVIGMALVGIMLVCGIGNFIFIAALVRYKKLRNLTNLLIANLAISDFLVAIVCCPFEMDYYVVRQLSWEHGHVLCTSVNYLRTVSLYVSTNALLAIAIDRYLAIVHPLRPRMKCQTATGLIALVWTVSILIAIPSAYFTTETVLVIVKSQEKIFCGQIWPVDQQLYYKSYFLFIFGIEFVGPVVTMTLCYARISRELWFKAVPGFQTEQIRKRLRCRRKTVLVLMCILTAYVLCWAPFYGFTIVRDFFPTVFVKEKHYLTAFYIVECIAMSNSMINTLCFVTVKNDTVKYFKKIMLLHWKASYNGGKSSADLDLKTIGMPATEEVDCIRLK
T1 sequence (Q4AEG4 whole entry): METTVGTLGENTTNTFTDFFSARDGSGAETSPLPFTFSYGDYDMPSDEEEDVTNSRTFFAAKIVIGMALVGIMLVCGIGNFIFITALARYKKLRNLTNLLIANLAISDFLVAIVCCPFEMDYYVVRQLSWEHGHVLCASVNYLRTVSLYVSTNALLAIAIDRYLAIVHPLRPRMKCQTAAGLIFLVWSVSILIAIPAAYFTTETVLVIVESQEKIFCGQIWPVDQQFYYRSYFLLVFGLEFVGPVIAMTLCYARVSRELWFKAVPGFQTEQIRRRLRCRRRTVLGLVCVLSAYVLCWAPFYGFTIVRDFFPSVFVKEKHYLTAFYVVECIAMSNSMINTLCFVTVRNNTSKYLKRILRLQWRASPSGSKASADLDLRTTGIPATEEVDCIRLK

B1: human PROK2 with a carboxy-terminal Glu-Glu tag, produced in baculovirus (PROK2cee) (ligand)
chain: AVITGACDKDSQCGGGMCCAVSIWVKSIRICTPMGKLGDSCHPLTRKVPFFGRRMHHTCPCLPGLACLRTSFNRFICLAQKGLEYMPMD
notes: also called huPROK2-CEE-Bv; Baculovirus-expressed PROK2
By Kd is commonly meant the free concentration of one partner at which half of the binding sites on the other are occupied at equilibrium, for simple one-to-one binding. Low readings indicate a tighter complex, high ones a looser complex. As to B1, the “EC50 of ERK-Map kinase activity in Wky12-22 cells” value in test [1] was 0.5 nM and ~5 ng/ml. This molecule also returned a Kd in test [2] of 31 nM. For the same molecule, the Kd in test [3] amounted to 1.5 nM. Moreover, in the test with GPCR73a receptor [4], the “SRE-luciferase fold-induction at 1 ng/ml, PROK2 heated at 56 C for 30 minutes” value worked out at 1.8 fold-induction; the “SRE-luciferase fold-induction at 1 ng/ml, fresh PROK2” value was 2.5 fold-induction; the “SRE-luciferase fold-induction at 3.2 ng/ml, PROK2 heated at 56 C for 30 minutes” value came out at 3.7 fold-induction; the “SRE-luciferase fold-induction at 3.2 ng/ml, fresh PROK2” value stood at 7.1 fold-induction. In addition, in the test with GPCR73a receptor [4], the “SRE-luciferase fold-induction at 10 ng/ml, PROK2 heated at 56 C for 30 minutes” value is 10 fold-induction; the “SRE-luciferase fold-induction at 10 ng/ml, fresh PROK2” value came to 13.1 fold-induction; the “SRE-luciferase fold-induction at 32 ng/ml, PROK2 heated at 56 C for 30 minutes” value came to 14.8 fold-induction; the “SRE-luciferase fold-induction at 32 ng/ml, fresh PROK2” value is 18.7 fold-induction. For the same molecule, in the test with GPCR73a receptor [4], the “SRE-luciferase fold-induction at 100 ng/ml, PROK2 heated at 56 C for 30 minutes” value was 18.6 fold-induction and the “SRE-luciferase fold-induction at 100 ng/ml, fresh PROK2” value is 20.5 fold-induction.

B2: human PROK2 produced in E. coli (in house) (ligand)
chain: AVITGACDKDSQCGGGMCCAVSIWVKSIRICTPMGKLGDSCHPLTRKVPFFGRRMHHTCPCLPGLACLRTSFNRFICLAQK
With B2, in the test with GPCR73a receptor [5], the “SRE-luciferase fold-induction at 1 ng/ml” value is 4.1 fold-induction, the “SRE-luciferase fold-induction at 3.2 ng/ml” value came out at 7.6 fold-induction, the “SRE-luciferase fold-induction at 10 ng/ml” value was determined as 10.2 fold-induction and the “SRE-luciferase fold-induction at 32 ng/ml” value came out at 14.1 fold-induction. Also, in the test with GPCR73a receptor [5], the “SRE-luciferase fold-induction at 100 ng/ml” value stood at 17.6 fold-induction, the “SRE-luciferase fold-induction at 320 ng/ml” value stood at 22 fold-induction and the “SRE-luciferase fold-induction at 1000 ng/ml” value is 13.9 fold-induction. Also, in the test with GPCR73b receptor [6], the “SRE-luciferase fold-induction at 1 ng/ml” value was found to be 1 fold-induction, the “SRE-luciferase fold-induction at 3.2 ng/ml” value was 1.2 fold-induction, the “SRE-luciferase fold-induction at 10 ng/ml” value came to 1.7 fold-induction and the “SRE-luciferase fold-induction at 32 ng/ml” value worked out at 2.6 fold-induction. In the test with GPCR73b receptor [6], the “SRE-luciferase fold-induction at 100 ng/ml” value came out at 4.4 fold-induction, the “SRE-luciferase fold-induction at 320 ng/ml” value was 5.2 fold-induction and the “SRE-luciferase fold-induction at 1000 ng/ml” value amounted to 4.8 fold-induction. For the same molecule, in the test with GPCR73a receptor [7], the “SRE-luciferase fold-induction at 1 ng/ml” value amounted to 1.9 fold-induction, the “SRE-luciferase fold-induction at 3.2 ng/ml” value is 4 fold-induction, the “SRE-luciferase fold-induction at 10 ng/ml” value is 8.4 fold-induction and the “SRE-luciferase fold-induction at 32 ng/ml” value was found to be 15 fold-induction. In the test with GPCR73a receptor [7], the “SRE-luciferase fold-induction at 100 ng/ml” value worked out at 19 fold-induction, the “SRE-luciferase fold-induction at 320 ng/ml” value stood at 20.7 fold-induction and the “SRE-luciferase fold-induction at 1000 ng/ml” value came out at 17.8 fold-induction. Further, in the test with GPCR73b receptor [8], the “SRE-luciferase fold-induction at 1 ng/ml” value was 0.7 fold-induction, the “SRE-luciferase fold-induction at 3.2 ng/ml” value is 1.3 fold-induction, the “SRE-luciferase fold-induction at 10 ng/ml” value was determined as 1.9 fold-induction and the “SRE-luciferase fold-induction at 32 ng/ml” value was determined as 3 fold-induction. For the same molecule, in the test with GPCR73b receptor [8], the “SRE-luciferase fold-induction at 100 ng/ml” value is 4.7 fold-induction, the “SRE-luciferase fold-induction at 320 ng/ml” value is 6.3 fold-induction and the “SRE-luciferase fold-induction at 1000 ng/ml” value was found to be 7.1 fold-induction.

B3: human PROK2 (preparation not stated for the assay) (ligand)
chain: AVITGACDKDSQCGGGMCCAVSIWVKSIRICTPMGKLGDSCHPLTRKVPFFGRRMHHTCPCLPGLACLRTSFNRFICLAQK
On to B3, for which the “ERK phosphorylation in 4T1.2 cells (BIO-PLEX phospho-protein assay), maximal at 100 ng/ml PROK2” value in test [9] is 1.8 fold. In test [1], the “ERK 1/2 phosphorylation in Wky12-22 cells, 15 minutes after 100 ng/ml PROK2” value is 11 fold induction over basal and the “JNK phosphorylation in Wky12-22 cells, 15 minutes after 100 ng/ml PROK2” value was 3 fold.
